B1: LEDGF IBD fused to Gal4 transcription activation domain (WT prey) [human] / Full-length HIV-1 IN fused to the DNA binding domain of Gal4 (WT bait) [HIV-1] (parent complex)
chain 1: SMDSRLQRIHAEIKNSLKIDNLDVNRCIEALDELASLQVTMQQAQKHTEMITTLKKIRRFKVSQVIMEKSTMLYNKFKNMFLV
chain 2: not shown

Variants of: B1
Assay: yeast two-hybrid (β-galactosidase reporter); S. cerevisiae Y187; quadruplicate measurements; read off a plot

| Variant | percent of parent |
| --- | --- |
| chain 1 D20N | ~1.2 % of WT/WT |
| chain 1 K55E, chain 1 K56E, chain 1 R59E | ~1.4 % of WT/WT |
| chain 1 K55E, chain 1 K56S, chain 1 R59E | ~1.3 % of WT/WT |

Variants of: B1
Assay: yeast two-hybrid (β-galactosidase reporter); S. cerevisiae Y187; quadruplicate measurements

| Variant | percent of parent |
| --- | --- |
| chain 1 K46E | 129 % of WT/WT |
| chain 1 K14E | 139 % of WT/WT |
